Measured values from IntAct's records for PubMed 18060821.

B1: MAPK phosphothreonine lyase (Salmonella enteritidis), P0A2N1 (parent)
chain: MPINRPNLNLNIPPLNIVAAYDGAEIPSTNKHLKNNFNSLHNQMRKMPVSHFKEALDVPDYSGMRQSGFFAMSQGFQLNNHGYDVFIHARRESPQSQGKFAGDKFHISVLRDMVPQAFQALSGLLFSEDSPVDKWKVTDMEKVVQQARVSLGAQFTLYIKPDQENSQYSASFLHKTRQFIECLESRLSENGVISGQCPESDVHPENWKYLSYRNELRSGRDGGEMQRQALREEPFYRLMTE

Variants of: B1
Settings: with mk07_human MAPK7, Q13164
mk07_human MAPK7, Q13164, sequence (Q13164 whole entry, looked up): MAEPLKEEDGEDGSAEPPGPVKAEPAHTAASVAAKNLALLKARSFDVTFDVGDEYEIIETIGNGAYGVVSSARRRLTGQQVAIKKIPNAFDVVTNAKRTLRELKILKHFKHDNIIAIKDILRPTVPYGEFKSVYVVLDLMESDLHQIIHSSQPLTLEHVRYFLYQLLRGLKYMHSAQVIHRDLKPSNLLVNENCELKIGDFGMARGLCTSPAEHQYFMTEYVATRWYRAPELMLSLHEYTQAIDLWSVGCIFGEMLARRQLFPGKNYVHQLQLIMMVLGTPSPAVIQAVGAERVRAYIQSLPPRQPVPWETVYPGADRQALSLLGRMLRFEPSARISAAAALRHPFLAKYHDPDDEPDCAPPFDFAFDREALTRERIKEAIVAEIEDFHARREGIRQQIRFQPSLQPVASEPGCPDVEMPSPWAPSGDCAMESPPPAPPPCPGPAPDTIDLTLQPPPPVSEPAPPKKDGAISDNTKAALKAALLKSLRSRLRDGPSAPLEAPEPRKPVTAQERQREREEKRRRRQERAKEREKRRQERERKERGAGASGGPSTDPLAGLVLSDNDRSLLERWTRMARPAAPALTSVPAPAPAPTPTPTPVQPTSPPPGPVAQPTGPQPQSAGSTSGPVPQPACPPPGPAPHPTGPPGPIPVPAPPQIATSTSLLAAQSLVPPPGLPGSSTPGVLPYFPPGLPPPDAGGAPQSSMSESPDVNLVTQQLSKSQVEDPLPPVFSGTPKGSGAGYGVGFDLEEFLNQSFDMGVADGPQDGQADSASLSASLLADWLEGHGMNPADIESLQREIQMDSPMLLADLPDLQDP

| Variant | effect of a mutation on the interaction |
| --- | --- |
| MPINRPNLNLNIPPLNIVAAYDGAEIPSTNKHLKNNFNSLHNQMRKMPVSHFKEALDVPDYSGMRQSGFFAMSQGFQLNNHGYDVFIHARRESPQSQGKFAGDKFHISVLRDMVPQAFQALSGLLFSEDSPVDKWAVTDMEKVVQQARVSLGAQFTLYIKPDQENSQYSASFLHKTRQFIECLESRLSENGVISGQCPESDVHPENWKYLSYRNELRSGRDGGEMQRQALREEPFYRLMTE [K136A] | with no effect |

Variants of: B1
Settings: with mk07_human MAPK7, Q13164
Remark: another data set of the same source

| Variant | effect of a mutation on the interaction |
| --- | --- |
| MPINRPNLNLNIPPLNIVAAYDGAEIPSTNKHLKNNFNSLHNQMRKMPVSHFKEALDVPDYSGMRQSGFFAMSQGFQLNNHGYDVFIHARRESPQSQGKFAGDKFHISVLRDMVPQAFQALSGLLFSEDSPVDKWAVTDMEKVVQQARVSLGAQFTLYIKPDQENSQYSASFLHKTRQFIECLESRLSENGVISGQCPESDVHPENWKYLSYRNELRSGRDGGEMQRQALREEPFYRLMTE [K136A] | causing an interaction |
| MPINRPNLNLNIPPLNIVAAYDGAEIPSTNKHLKNNFNSLHNQMRKMPVSHFKEALDVPDYSGMRQSGFFAMSQGFQLNNHGYDVFIHARRESPQSQGKFAGDKFAISVLRDMVPQAFQALSGLLFSEDSPVDKWAVTDMEKVVQQARVSLGAQFTLYIKPDQENSQYSASFLHKTRQFIECLESRLSENGVISGQCPESDVHPENWKYLSYRNELRSGRDGGEMQRQALREEPFYRLMTE [H106A;K136A] | disrupting interaction |
